Key:
[1] = biological target: T1, human PSMA displayed on the surface of LNCaP cells (human, UniProt Q04609 1-750); test: flow cytometry on LNCaP cells, Fab titrated
T1 construct: Endogenous PSMA on living LNCaP cells; also called PSMA-positive LNCaP cells
Method: (§1) Flow cytometry was used to analyze affinity and specificity of 5D3-hFabs for PSMA in its physiological environment, i.e., at the surface of living cells. To this end, LNCaP and DU145 cells were used as representatives of PSMA-positive and PSMA-negative cell lines, respectively, in a protocol described previously (Novakova, Belousova et al. (2020), Int. J. Mol. Sci., 21(18):6672). Briefly, cells were treated by three-fold dilution series of 5D3-hFabs in the concentration range 6000 nM-0.42 pM. Bound 5D3-hFabs were detected by the combination of anti-Strep tag antibody and goat anti-mouse secondary antibody conjugated to Alexa Fluor 647. Cell samples were immediately analyzed using a LSRFortessa flow cytometer.

[2] = biological target: T2, recombinant human PSMA (prostate-specific membrane antigen), biotin-tagged (human, UniProt Q04609 44-750, biotin tag (site not stated)); test: native ELISA, streptavidin-captured biotin-tagged PSMA, Fab titrated
T2 construct: also called biotin-tagged PSMA; biotin-labelled PSMA
T2 sequence (Q04609 44-750 limits assumed): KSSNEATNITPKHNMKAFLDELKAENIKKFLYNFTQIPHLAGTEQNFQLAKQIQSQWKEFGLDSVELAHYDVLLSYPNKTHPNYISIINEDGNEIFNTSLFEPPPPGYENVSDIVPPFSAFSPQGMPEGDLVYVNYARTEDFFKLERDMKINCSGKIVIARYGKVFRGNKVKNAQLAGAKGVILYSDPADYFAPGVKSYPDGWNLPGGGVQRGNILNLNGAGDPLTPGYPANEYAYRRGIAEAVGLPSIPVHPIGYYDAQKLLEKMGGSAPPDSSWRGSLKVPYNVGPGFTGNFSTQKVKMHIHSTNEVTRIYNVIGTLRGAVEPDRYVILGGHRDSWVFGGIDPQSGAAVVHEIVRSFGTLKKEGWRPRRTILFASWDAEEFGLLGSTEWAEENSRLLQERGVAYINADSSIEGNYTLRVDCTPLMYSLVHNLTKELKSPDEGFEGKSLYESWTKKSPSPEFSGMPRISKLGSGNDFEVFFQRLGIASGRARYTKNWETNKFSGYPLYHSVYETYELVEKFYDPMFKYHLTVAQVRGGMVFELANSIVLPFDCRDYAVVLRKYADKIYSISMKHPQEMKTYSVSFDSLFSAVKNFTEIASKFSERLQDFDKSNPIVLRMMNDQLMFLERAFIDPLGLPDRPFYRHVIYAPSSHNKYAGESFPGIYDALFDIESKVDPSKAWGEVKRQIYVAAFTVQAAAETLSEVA
Method: (§2) Native ELISA was used to measure affinity of 5D3-hFabs for human PSMA. Experiments were performed in 96-well MaxiSorp plates coated with streptavidin complexed with biotin-tagged PSMA. Purified 5D3-hFabs were applied in 2-fold dilution series in the concentration range of 2000 nM-0.95 pM and goat anti-human secondary antibody conjugated to horseradish peroxidase, together with the TMB substrate, was used for 5D3-hFabs detection. Data were processed using a Prism 6 software (GraphPad, San Diego, CA) and binding curves fitted using an embedded non-linear curve-fitting algorithm (FIG. 4, Table 1). Affinity of all variants tested was in a single-digit nanomolar range (1.8-2.7 nM) and virtually identical to the parent murine and chimeric Fabs, documenting successful humanization results.

[3] = biological target: T2, recombinant human PSMA …; test: ELISA on plates coated with recombinant PSMA (biotin-tagged, captured on streptavidin), two-fold dilution series, goat anti-human-HRP and TMB
Method: FIG. 4—Affinity of Fab variants determined by ELISA. Plates coated with recombinant PSMA were probed with two-fold dilution series of individual fragments and binding visualized using goat anti-human secondary antibody conjugated to horseradish peroxidase together with the TMB substrate. Binding curves were fitted using a non-linear regression algorithm.
as §2

[4] = biological target: T1, human PSMA displayed on the surface of …; test: flow cytometry titration on cells (three-fold dilution series, anti-Strep antibody and goat anti-mouse Alexa Fluor 647); the sheet does not name the cell line, the text gives the curves as binding to cell-surface PSMA (LNCaP)
Method: FIG. 5—Affinity of Fab variants determined by flow cytometry. LNCaP (PSMA-positive) and DU145 (PSMA-negative) cell lines were probed with three-fold dilution series of tested Fab variants and bound antibodies visualized by the combination of anti-Strep and goat anti-mouse Alexa-Fluor647 antibodies. Cell samples were analyzed using a LSRFortessa flow cytometer and binding curves were fitted using a non-linear regression algorithm.
as §1

T1 sequence (Q04609 whole entry): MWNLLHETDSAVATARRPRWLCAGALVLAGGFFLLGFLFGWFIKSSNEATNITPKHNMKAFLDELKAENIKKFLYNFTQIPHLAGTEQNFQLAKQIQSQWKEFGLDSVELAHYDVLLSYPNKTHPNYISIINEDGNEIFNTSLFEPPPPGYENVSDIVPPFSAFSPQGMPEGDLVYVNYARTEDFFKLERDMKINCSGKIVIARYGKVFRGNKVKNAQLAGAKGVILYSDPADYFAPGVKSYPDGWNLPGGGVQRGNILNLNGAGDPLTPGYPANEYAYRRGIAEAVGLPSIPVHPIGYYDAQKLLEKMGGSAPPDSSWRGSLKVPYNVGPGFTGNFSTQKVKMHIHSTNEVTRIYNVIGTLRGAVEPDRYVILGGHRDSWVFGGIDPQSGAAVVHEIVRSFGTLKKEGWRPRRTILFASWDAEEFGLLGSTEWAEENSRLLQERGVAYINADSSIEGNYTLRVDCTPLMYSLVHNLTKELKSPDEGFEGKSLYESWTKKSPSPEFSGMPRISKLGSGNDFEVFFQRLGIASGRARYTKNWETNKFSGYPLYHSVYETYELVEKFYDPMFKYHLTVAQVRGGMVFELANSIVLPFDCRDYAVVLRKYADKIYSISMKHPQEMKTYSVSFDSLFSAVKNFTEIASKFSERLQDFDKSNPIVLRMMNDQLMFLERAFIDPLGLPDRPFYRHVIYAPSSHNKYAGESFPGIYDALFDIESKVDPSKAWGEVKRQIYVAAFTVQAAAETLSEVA

Row | Kd [1] [nM] | Kd [2] [nM] | EC50 (read off the curve) [3] [nM] | EC50 (read off the curve) [4] [nM] | Binder
1 | 2.8 | 1.8 | ~4 | ~3 | 6-5D3-hFab (Fab, V domains shown, Humanized Fab with a TwinStrep tag at the C-terminus of the CH1 constant domain; also called version 6 of 5D3-Fab; antibody 6 (Fab format)) VH: EVQLVESGGGLVQPGGSLRLSCAASGYAFNTSWMNWVRQAPGKGLEWISRIYPGDGDTNYNGKFKGKATISADKSKNTLYLQMNSLRAEDTAVYYCARGEWYLYYFDYWGQGTLVTVSS VL: DIQMTQSPSSLSASVGDRVTITCSASQGINNFLTWYQQKPGKALKLLIYYTSSLHSGVPSRFSGSGSGTDYTLTISSLQPEDFATYYCQQYSNLPFTFGQGTKVEIK
2 | 3 | 2.7 | ~2 | ~3 | 2-5D3-hFab (Fab, V domains shown, Humanized Fab with a TwinStrep tag at the C-terminus of the CH1 constant domain; also called version 2 of 5D3-Fab; antibody 2) VH: QVQLVQSGAEVKKPGASVKVSCKASGYAFNTSWMNWVRQAPGQGLEYIGRIYPGDGDTNYNGKFKGKATMTADKSISTVYMEVRRLRSDDTAVYYCARGEWYLYYFDYWGQGTLVTVSS VL: DIQMTQSPSSLSASVGDRVTITCSASQGINNFLTWYQHEPGKALKLLIYYTSSLHSGVPSRFSGSGSGTDYTLTISTLQPEDFATYYCQQYSNLPFTFGGGTKVEIK
3 | 4.1 | 1.8 | ~4 | ~4 | 5-5D3-hFab (Fab, V domains shown, Humanized Fab with a TwinStrep tag at the C-terminus of the CH1 constant domain; also called version 5 of 5D3-Fab; antibody 5) VH: QVQLVQSGPEVKKPGASVRLSCKASGYAFNTSWMNWVRQAPGQGLEWIGRIYPGDGDTNYNGKFKGKATMTADKSTNTAYMELRSLRSDDTAVYYCGRGEWYLYYFDYWGQGTLVTVSS VL: DIQMTQSPSSVSASVGDRVTISCSASQGINNFLTWYQQKLGKALQLLIYYTSSLHSGVPSRFSGSGSGTDYTLTISSLQPEDFATYYCQQYSNLPFTFGPGTKVDIK
